Test results: article PMC10397247

Experiments:
[1] = target: T1, 4H733-AA; assay: two-hybrid library CCmax;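 also: natural log of median RNA to DNA barcode read ratio; higher means stronger binding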
T1 chain: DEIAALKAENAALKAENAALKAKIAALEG

[2] = target: T2, 4H807-AA; assay: two-hybrid library CCmax; conditions: mean of both orientations;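 also: natural log of median RNA to DNA barcode read ratio; higher means stronger binding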
T2 chain: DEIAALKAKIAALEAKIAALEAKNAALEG

[3] = target: T3, APC3645-AA; assay: two-hybrid library CCmax; conditions: mean of both orientations;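 also: natural log of median RNA to DNA barcode read ratio; higher means stronger binding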
T3 chain: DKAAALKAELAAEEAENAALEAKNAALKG

[4] = target: T4, APC6108-AA; assay: two-hybrid library CCmax; conditions: mean of both orientations;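 also: natural log of median RNA to DNA barcode read ratio; higher means stronger binding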
T4 chain: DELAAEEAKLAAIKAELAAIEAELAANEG

[5] = target: T5, APC1015-AA; assay: two-hybrid library CCmax; conditions: mean of both orientations;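 also: natural log of median RNA to DNA barcode read ratio; higher means stronger binding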
T5 chain: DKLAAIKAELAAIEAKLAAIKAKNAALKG

[6] = target: T6, APC2237-AA; assay: two-hybrid library CCmax; conditions: mean of both orientations;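 also: natural log of median RNA to DNA barcode read ratio; higher means stronger binding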
T6 chain: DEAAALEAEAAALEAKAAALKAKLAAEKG

[7] = target: T7, APC4264-AA; assay: two-hybrid library CCmax; conditions: mean of both orientations
T7 chain: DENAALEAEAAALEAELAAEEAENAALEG

[8] = target: T8, APC1434-AA; assay: two-hybrid library CCmax; conditions: mean of both orientations
T8 chain: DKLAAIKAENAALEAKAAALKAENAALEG

[9] = target: T9, APC8910-AA; assay: two-hybrid library CCmax; conditions: mean of both orientations
T9 chain: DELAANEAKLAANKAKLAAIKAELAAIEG

[10] = target: T10, APC232-AA; assay: two-hybrid library CCmax; conditions: mean of both orientations
T10 chain: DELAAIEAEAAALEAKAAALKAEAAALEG

[11] = target: T11, APC9096-AA; assay: two-hybrid library CCmax; conditions: mean of both orientations
T11 chain: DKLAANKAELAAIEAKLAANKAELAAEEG

[12] = target: T12, APC2405-AA; assay: two-hybrid library CCmax; conditions: mean of both orientations
T12 chain: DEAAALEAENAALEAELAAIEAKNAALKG

[13] = target: T13, APC7099-AA; assay: two-hybrid library CCmax; conditions: mean of both orientations
T13 chain: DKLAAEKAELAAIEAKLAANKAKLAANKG

[14] = target: T14, APC8191-AA; assay: two-hybrid library CCmax; conditions: mean of both orientations
T14 chain: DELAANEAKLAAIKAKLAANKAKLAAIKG

[15] = target: T15, APC5383-AA; assay: two-hybrid library CCmax; conditions: mean of both orientations
T15 chain: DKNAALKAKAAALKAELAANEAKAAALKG

[16] = target: T16, APC9319-AA; assay: two-hybrid library CCmax; conditions: mean of both orientations
T16 chain: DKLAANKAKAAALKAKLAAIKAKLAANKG

[17] = target: T17, APC4011-AA; assay: two-hybrid library CCmax; conditions: mean of both orientations
T17 chain: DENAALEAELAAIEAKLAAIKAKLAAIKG

[18] = target: T18, APC4436-AA; assay: two-hybrid library CCmax; conditions: mean of both orientations
T18 chain: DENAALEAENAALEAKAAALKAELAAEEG

[19] = target: T19, P3-AA; assay: two-hybrid library CCmax; conditions: mean of both orientations
T19 chain: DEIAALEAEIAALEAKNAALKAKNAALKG

[20] = target: T20, AP6-AA; assay: two-hybrid library CCmax; conditions: mean of both orientations
T20 chain: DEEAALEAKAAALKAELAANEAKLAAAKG

[21] = target: T21, P11-AA; assay: two-hybrid library CCmax; conditions: mean of both orientations
T21 chain: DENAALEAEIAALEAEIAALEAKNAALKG

[22] = target: T22, P10-AA; assay: two-hybrid library CCmax; conditions: mean of both orientations
T22 chain: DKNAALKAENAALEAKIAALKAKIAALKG

[23] = target: T23, AP8-AA; assay: two-hybrid library CCmax; conditions: mean of both orientations
T23 chain: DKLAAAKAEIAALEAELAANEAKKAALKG

[24] = target: T24, P9-AA; assay: two-hybrid library CCmax; conditions: mean of both orientations
T24 chain: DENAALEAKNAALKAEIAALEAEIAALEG

[25] = target: T25, P4-AA; assay: two-hybrid library CCmax; conditions: mean of both orientations
T25 chain: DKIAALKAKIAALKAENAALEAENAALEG

[26] = target: GCN2_T; assay: two-hybrid library CCmax
[27] = target: T26, P7-AA; assay: two-hybrid library CCmax; conditions: mean of both orientations
T26 chain: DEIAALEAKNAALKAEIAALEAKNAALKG

[28] = target: T27, P12-AA; assay: two-hybrid library CCmax; conditions: mean of both orientations
T27 chain: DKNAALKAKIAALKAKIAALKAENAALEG

[29] = target: T28, AP7-AA; assay: two-hybrid library CCmax; conditions: mean of both orientations
T28 chain: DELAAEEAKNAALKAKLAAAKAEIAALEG

[30] = target: T29, AP4-AA; assay: two-hybrid library CCmax; conditions: mean of both orientations
T29 chain: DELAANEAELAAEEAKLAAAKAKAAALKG

[31] = target: T30, P8-AA; assay: two-hybrid library CCmax; conditions: mean of both orientations
T30 chain: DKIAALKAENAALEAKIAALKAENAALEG

[32] = target: T31, P2-AA; assay: two-hybrid library CCmax; conditions: mean of both orientations
T31 chain: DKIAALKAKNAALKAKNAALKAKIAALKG

[33] = target: T32, AP5-AA; assay: two-hybrid library CCmax; conditions: mean of both orientations
T32 chain: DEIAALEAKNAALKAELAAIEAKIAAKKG

[34] = target: T33, P1-AA; assay: two-hybrid library CCmax; conditions: mean of both orientations
T33 chain: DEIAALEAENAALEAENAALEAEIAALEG

[35] = target: T34, AP3-AA; assay: two-hybrid library CCmax
T34 chain: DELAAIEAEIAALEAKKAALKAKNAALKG

[36] = target: T35, 4H717-bN; assay: two-hybrid library CCNG1
T35 chain: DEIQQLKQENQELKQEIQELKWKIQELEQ

[37] = target: T36, 4H797-bN; assay: two-hybrid library CCNG1
T36 chain: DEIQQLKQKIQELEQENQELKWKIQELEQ

[38] = target: T37, 4H568-bN; assay: two-hybrid library CCNG1
T37 chain: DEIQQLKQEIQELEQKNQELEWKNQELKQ

[39] = target: T38, 4H953-bN; assay: two-hybrid library CCNG1
T38 chain: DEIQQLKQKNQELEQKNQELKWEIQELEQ

[40] = target: T39, 4H607-bN; assay: two-hybrid library CCNG1
T39 chain: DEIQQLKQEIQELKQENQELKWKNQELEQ

[41] = target: T40, 4H967-bN; assay: two-hybrid library CCNG1
T40 chain: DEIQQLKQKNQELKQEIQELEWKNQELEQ

[42] = target: T41, 4H72-bN; assay: two-hybrid library CCNG1
T41 chain: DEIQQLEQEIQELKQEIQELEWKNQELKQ

[43] = target: T42, 4H454-bN; assay: two-hybrid library CCNG1
T42 chain: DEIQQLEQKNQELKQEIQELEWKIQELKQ

[44] = target: T43, 4H883-bN; assay: two-hybrid library CCNG1
T43 chain: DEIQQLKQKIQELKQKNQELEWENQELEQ

[45] = target: T44, 4H918-bN; assay: two-hybrid library CCNG1
T44 chain: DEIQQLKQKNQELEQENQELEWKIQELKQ

[46] = target: T45, 4H4001-bN; assay: two-hybrid library CCNG1
T45 chain: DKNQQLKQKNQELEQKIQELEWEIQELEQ

[47] = target: T46, 4H754-bN; assay: two-hybrid library CCNG1
T46 chain: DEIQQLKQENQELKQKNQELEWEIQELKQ

[48] = target: T47, P6A-bS; assay: two-hybrid library CCNG1
T47 chain: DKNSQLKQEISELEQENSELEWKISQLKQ

[49] = target: T48, 4H687-bN; assay: two-hybrid library CCNG1
T48 chain: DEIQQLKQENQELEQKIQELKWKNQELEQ

[50] = target: T49, 4H457-bN; assay: two-hybrid library CCNG1
T49 chain: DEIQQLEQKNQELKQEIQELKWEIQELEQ

[51] = target: T50, 4H462-bN; assay: two-hybrid library CCNG1
T50 chain: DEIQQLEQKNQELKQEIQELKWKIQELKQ

[52] = target: T51, 4H908-bN; assay: two-hybrid library CCNG1
T51 chain: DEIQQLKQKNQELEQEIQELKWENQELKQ

Q: How did the interaction score [1] turn out when DEIAALKAENAALKAENAALKAKIAALEG [4H733-AA] was run?
A: 2.16

Q: And the interaction score [2]?
A: -1.53

Q: And the interaction score [3]?
A: -1.25

Q: What about the interaction score [4] of the same binder?
A: -1.39

Q: And the interaction score [5]?
A: -1.46

Q: What about the interaction score [6] of the same binder?
A: -1.41

Q: What about the interaction score [7] of the same binder?
A: -1.83

Q: And the interaction score [8]?
A: -1.75

Q: And the interaction score [9]?
A: -1.37

Q: And the interaction score [10]?
A: -1.82

Q: What about the interaction score [11] of the same binder?
A: -1.46

Q: And the interaction score [12]?
A: -1.28

Q: And the interaction score [13]?
A: -1.67

Q: And the interaction score [14]?
A: -1.19

Q: And the interaction score [15]?
A: -2.26

Q: And the interaction score [16]?
A: -2.02

Q: And the interaction score [17]?
A: -1.54

Q: What about the interaction score [18] of the same binder?
A: -1.66

Q: What does the source list for DELAAIEAEIAALEAKKAALKAKNAALKG [AP3-AA]?
A: interaction score [19]: -1.84; interaction score [20]: -1.78; interaction score [21]: -1.01; interaction score [22]: -0.602; interaction score [23]: -1.48; interaction score [24]: -1.41; interaction score [25]: 1.61; interaction score [26]: -1.8; interaction score [27]: -1.23; interaction score [28]: -1.03; interaction score [29]: -1.93; interaction score [30]: -1.84; interaction score [31]: -1.45; interaction score [32]: -1.75; interaction score [33]: -1.45; interaction score [34]: -2.22; interaction score [35]: 0.89

Q: Which interaction score [36] does the source give for DKNQQLKQKNQELEQKIQELEWEIQELEQ [4H4001-bN] here?
A: -1.63

Q: And the interaction score [37]?
A: -1.1

Q: What about the interaction score [38] of the same binder?
A: -2.33

Q: And the interaction score [39]?
A: -1.5

Q: And the interaction score [40]?
A: -1.46

Q: What about the interaction score [41] of the same binder?
A: -2.32

Q: What about the interaction score [42] of the same binder?
A: -1.03

Q: What about the interaction score [43] of the same binder?
A: 0.0134

Q: And the interaction score [44]?
A: -0.641

Q: And the interaction score [45]?
A: -0.935

Q: And the interaction score [46]?
A: -0.804

Q: What about the interaction score [47] of the same binder?
A: -1.75

Q: And the interaction score [48]?
A: -2.58

Q: What about the interaction score [49] of the same binder?
A: -1.77

Q: What about the interaction score [50] of the same binder?
A: -0.688

Q: What about the interaction score [51] of the same binder?
A: -0.667

Q: And the interaction score [52]?
A: -1.27
